# Laboratory results as given in US20050221395A1, “Methods and products based on oligomerization of stress proteins” (priority 2002, published 2005).
# Values joined by “and” are separate entries in the source; they are usually repeats but may differ in a detail not shown here. Identical values can stand only once.
# B1: gp96-peptide complex isolated from CT-26 tumors: Gp96-peptide complex isolated from murine CT-26 tumors; aliquots kept at 4° C. or heat treated (protein, UniProt P08113 22-802, looked up)
# Endoplasmin: DDEVDVDGTVEEDLGKSREGSRTDDEVVQREEEAIQLDGLNASQIRELREKSEKFAFQAEVNRMMKLIINSLYKNKEIFLRELISNASDALDKIRLISLTDENALAGNEELTVKIKCDKEKNLLHVTDTGVGMTREELVKNLGTIAKSGTSEFLNKMTEAQEDGQSTSELIGQFGVGFYSAFLVADKVIVTSKHNNDTQHIWESDSNEFSVIADPRGNTLGRGTTITLVLKEEASDYLELDTIKNLVRKYSQFINFPIYVWSSKTETVEEPLEEDEAAKEEKEESDDEAAVEEEEEEKKPKTKKVEKTVWDWELMNDIKPIWQRPSKEVEEDEYKAFYKSFSKESDDPMAYIHFTAEGEVTFKSILFVPTSAPRGLFDEYGSKKSDYIKLYVRRVFITDDFHDMMPKYLNFVKGVVDSDDLPLNVSRETLQQHKLLKVIRKKLVRKTLDMIKKIADEKYNDTFWKEFGTNIKLGVIEDHSNRTRLAKLLRFQSSHHSTDITSLDQYVERMKEKQDKIYFMAGSSRKEAESSPFVERLLKKGYEVIYLTEPVDEYCIQALPEFDGKRFQNVAKEGVKFDESEKTKESREATEKEFEPLLNWMKDKALKDKIEKAVVSQRLTESPCALVASQYGWSGNMERIMKAQAYQTGKDISTNYYASQKKTFEINPRHPLIRDMLRRIKEDEDDKTVMDLAVVLFETATLRSGYLLPDTKAYGDRIERMLRLSLNIDPEAQVEEEPEEEPEDTSEDAEDSEQDEGEEMDAGTEEEEEETEKESTEKDEL
# modifications: CT-26 tumor derived, complexed with peptides
# notes: Gp96-peptide complex isolated from murine CT-26 tumors; aliquots kept at 4° C. or heat treated
# Columns and labels:
# [1] = ATPase activity, luciferin-luciferase luminescence assay (geldanamycin inhibitable); type: biochemical; settings: for ATPase activity of SEC fractions (rate of ATP hydrolysis per mg protein): SEC fractions of human tumor derived gp96-peptide complex (FIG. 6); for ATPase: gp96 loaded with AH1 19mer peptide
# Method: Finally, ATPase activity of each fraction was determined based on the loss of ATP using a luciferin-luciferase luminescence assay. Values are reported as the rate of ATP hydrolysis per mg protein. […] The ATPase activity was in the dimer containing fractions with minimal activity in the high molecular weight aggregate and monomer fractions.
# ATPase activity was measured as the loss of ATP following 4 hr. of incubation at 37° C. using a luciferin-luciferase luminescence assay. Values are reported as the rate of ATP hydrolysis per mg protein and represent only the activity that is geldanamycin inhibitable to ensure specificity for the hsp90 family of heat shock proteins.
# The assay is performed as follows. Gp96 samples (2 μL, 500 μg/mL in PBS) were mixed with 2 μL of a solution comprising a 10 fold molar excess ATP in PBS containing 12.5 mM MgCl2, and either 20% (v/v) DMSO or DMSO containing […] geldanamycin. This mixture was incubated at 37° C. for 4 hr. Samples were then diluted to 100 μL with PBS and the ATP contained in 50 μL of each sample was quantified using the ROCHE CLSII bioluminescence ATP assay kit. Bioluminescence was measured using a Molecular Devices Lmax luminometer. The difference in ATP concentration between uninhibited and Geldanamycin-inhibited measurements reflects the amount of ATP hydrolysis specific to gp96. Rates were calculated from this differential and expressed as nmoles of ATP hydrolyzed per mg protein per hr.
# [2] = % dimer by size exclusion chromatography (SEC); type: physicochemical; settings: for % Dimer: Superose 6 column, gp96 loaded with AH1 19mer peptide; for dimeric form by SEC: mild heat treatment
# Method: Gp96-peptide complex was isolated from murine CT-26 tumors. Separate aliquots of each preparation were either maintained at 4° C. (untreated) or subjected to mild heat treatment to denature the complex.
# HPLC size exclusion chromatography is currently being optimized and has been run under a few different formats. The column was either a TSK 3000SWXL (Toso Haus) or a Superose 6 (Amersham Pharmacia) equilibrated in 10 mM phosphate buffer, pH 7.1, with 300 mM NaCl. All experiments were run at room temperature on a Waters Alliance or HP 1100 HPLC systems at a flow rate of 0.5 mL/min. The following results for human tumor derived gp96 (reported in Table 3, below) were all analyzed on the Superose 6 column. % dimer values represent the area percent of the dimer peak relative to total peak area.
# [3] = system: AH1 peptide-specific CTLs co-cultured with RAW264.7 cells; experiment: hybrid antigen re-presentation assay (IFN-γ by ELISA); type: cell-based, mouse; settings: for IFN-γ response (T-cell stimulation): 10 μg/mL or diluted with unloaded gp96 at 1:3, 1:10 or 1:30, APCs and CTLs (FIG. 7); for ability to stimulate T-cells: heated at 60° C. for 10 min
# Method: For this purpose, a hybrid antigen re-presentation bioassay system was developed in which the mouse antigen, AH1 peptide, for which a mouse CD8 T-cell line is available, was exchanged in vitro onto human tumor derived hsp. The gp96-peptide complex was then tested for its ability to facilitate antigen re-presentation and antigen-specific T-cell stimulation.
# The antigen presenting cell line, RAW264.7 (ATCC #TIB-71), is an Abelson murine leukemia virus transformed macrophage cell line, which originated from the BALB/c strain (H-2^d). The CTL line specific for the murine CT26 tumor derived AH1 epitope was obtained from P. Srivastava (U. of Conn. Medical Center). They were re-stimulated on a weekly basis with the AH1 peptide plus irradiated BALB/c splenocytes. The 9 amino acid AH1 peptide epitope ([…]) and the 19mer peptide ([…]) which contained this epitope were obtained from Sigma Genosys 1442 lake Front Circle, The Woodlands, Tex. 77380-3600.
# AH1 19mer peptide was added to purified gp96 preparations at a ratio of 50:1 peptide to protein and the mixture incubated at 37° C. for 30 mm. Unbound peptide was removed by 4 cycles of spin dialysis with 10 volumes of PBS using 30K MWCO Centricon spin filter units (Millipore). Total protein was determined by the Bradford assay.
# The in vitro antigen re-presentation assay has been described. Briefly, 10^4 AH1 peptide-specific CTLs (day 8 post stimulation) were co-cultured with 10^4 RAW264.7 cells in 96-well flat bottom plates. In vitro loaded gp96 samples at 10 μg/mL were analyzed neat or diluted with unloaded gp96 at the indicated amounts in order to maintain constant protein concentration. Protein samples and controls were added to the wells and incubated at 37° C. for 18 hr. Following centrifugation, the supernatants were harvested for analysis of IFN-γ levels by ELISA (R&D Systems). Reported values represent the average of six replicates. AH1 9mer peptide served as a positive control and unloaded gp96, AH1 19mer peptide and media alone as negative controls. Additional negative controls were provided by applying identical sets of samples to plates that contained either CTLs or APCs only.
# The hybrid re-presentation assay measures the ability of human gp96, loaded with AH1 19mer peptide, to deliver antigen to mouse APCs to facilitate re-presentation leading to simulation of antigen specific T-cells. […] The second and third panels are controls for CTLs and APCs alone. Each data set contains media alone, unloaded gp96 and AH1 19mer as negative controls and AH1 9mer peptide, which can exchange directly onto surface MHC I molecules, as the positive control. Gp96/AH1 19mer complex was applied at 10 μg/mL or diluted with unloaded gp96 at 1:3, 1:10 or 1:30.
# NECA ligand binding = experiment: NECA ligand binding
# Method: Dimer content also correlates with the ability of gp96 to bind NECA. Using the gp96-peptide complex isolated from CT-26 tumors, aliquots of each preparation were also analyzed for NECA ligand binding.
# Tumor specific T-cell = experiment: antigen re-presentation and T-cell activation measured by IFN-γ release; type: cell-based, murine
# Method: Re-presentation of antigenic peptides by hsps is another biological activity of significance. […] Immune response mediated by RAW264.7 APCs and CTLs specific to the peptide of the gp96 complex was measured by IFN-γ levels secreted by the CTLs. IFN-γ is a cytokine that is known in the art to be an indicator of general immune status; it also plays a major role in tumor recognition and rejection. […] A re-presentation assay is described in section 8, by way of example and not limitation.
# The same samples were then analyzed for antigen re-presentation and T-cell activation as measured by IFN-γ expression.
molecule,measurement,setting,value
Fractions 8-10: SEC fractions of human ovarian tumor derived gp96-peptide complex representing the dimer,ATPase activity of SEC fractions (rate of ATP hydrolysis per mg protein),[1],highest
fractions 2-5: SEC fractions of human ovarian tumor derived gp96-peptide complex containing mostly higher molecular weight aggregates,ATPase activity of SEC fractions (rate of ATP hydrolysis per mg protein),[1],significantly less
"fractions 11-15: SEC fractions of human ovarian tumor derived gp96-peptide complex: monomeric species, degradation products and lower molecular weight species",ATPase activity of SEC fractions (rate of ATP hydrolysis per mg protein),[1],significantly less
"human endometrial: gp96 purified from human endometrial tumor, loaded in vitro with AH1 19mer peptide (RVTYHSPSYVYHQFERRAK)",% Dimer,[2]; heated at 60° C. for 10 min,0%
same,% Dimer,[2]; untreated,86% and 83%
same,ATPase,[1]; heated at 60° C. for 10 min,0 nmol/mg/h
same,ATPase,[1]; untreated,8.5 ± 0.3 nmol/mg/h and 9.4 ± 0.5 nmol/mg/h
same,IFN-γ response (T-cell stimulation),[3],dose dependent IFN-γ response
same,ability to stimulate T-cells,[3],abolished
human gp96-peptide complex: human gp96-peptide complex used in accelerated stability (mild heat) study,dimeric form by SEC,[2],converted dimeric protein to high molecular weight aggregates
same,ATPase activity,[1]; mild heat treatment,abolished
"human renal: gp96 purified from human renal cell carcinoma, loaded in vitro with AH1 19mer peptide",% Dimer,[2]; heated at 60° C. for 10 min,0%
same,% Dimer,[2]; untreated,84%
same,ATPase,[1]; heated at 60° C. for 10 min,0 nmol/mg/h
same,ATPase,[1]; untreated,10.3 ± 0.1 nmol/mg/h
same,IFN-γ response (T-cell stimulation),[3],specific and dose dependent stimulation of T-cells
same,ability to stimulate T-cells,[3],abrogated
recombinant gp96: samples of recombinant gp96 incubated at various temperatures for 10 minutes (FIG. 8),ATPase activity,[1]; incubated at the indicated temperatures for 10 minutes (FIG. 8),loss of ATPase activity
unloaded gp96: human tumor derived gp96 not loaded with AH1 19mer peptide; negative control and diluent,IFN-γ response (T-cell stimulation),[3],no stimulation
B1,% Dimer by SEC,[2]; 4° C. (untreated),84.44% and 87% and 75.8%
same,% Dimer by SEC,[2]; 49° C. at 15 min,74%
same,% Dimer by SEC,[2]; 49° C. at 25 min,54%
same,% Dimer by SEC,[2]; 49.5° C. at 30 min,0%
same,% Dimer by SEC,[2]; 60° C. at 30 min,0%
same,% Dimer by SEC,[2]; 60° C. at 60 min,0%
same,% Dimer by SEC,[2]; 60° C. at 120 min,0%
same,dimeric form by SEC,[2],rapidly converts to higher molecular weight aggregates
same,Specific NECA activity,NECA ligand binding; 4° C. (untreated),1.68 μg NECA bound gp96/μg gp96 and 1.96 μg NECA bound gp96/μg gp96 and 3.27 μg NECA bound gp96/μg gp96
same,Specific NECA activity,NECA ligand binding; 49° C. at 15 min,1.97 μg NECA bound gp96/μg gp96
same,Specific NECA activity,NECA ligand binding; 49° C. at 25 min,1.80 μg NECA bound gp96/μg gp96
same,Specific NECA activity,NECA ligand binding; 49.5° C. at 30 min,0.12 μg NECA bound gp96/μg gp96
same,Specific NECA activity,NECA ligand binding; 60° C. at 30 min,0.04 μg NECA bound gp96/μg gp96 and 0.07 μg NECA bound gp96/μg gp96
same,Specific NECA activity,NECA ligand binding; 60° C. at 60 min,0.08 μg NECA bound gp96/μg gp96
same,Specific NECA activity,NECA ligand binding; 60° C. at 120 min,0.10 μg NECA bound gp96/μg gp96
same,Tumor specific T-cell activation (IFN-γ release),Tumor specific T-cell; 49° C. at 15 min,0 pg/mL
same,Tumor specific T-cell activation (IFN-γ release),Tumor specific T-cell; 49° C. at 25 min,0 pg/mL
same,Tumor specific T-cell activation (IFN-γ release),Tumor specific T-cell; 49.5° C. at 30 min,3150 pg/mL
same,Tumor specific T-cell activation (IFN-γ release),Tumor specific T-cell; 60° C. at 60 min,9350 pg/mL
same,Tumor specific T-cell activation (IFN-γ release),Tumor specific T-cell; 60° C. at 120 min,8100 pg/mL
